B1: C8orf76 (parent)
chain: KLAEAYLNLGPALSAALASSQKQH
B2: CROP (parent)
chain: VFGRGDNISDVSKFLEDDKWMEE

Variants of: B1
Test: protein stability index of a GFP-peptide fusion (GPS, HEK-293T) (PSI 1-6); higher = more stable
Details: c terminus: a fixed tail appended
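Note: lentivirally expressed fusions sorted by FACS into six bins by GFP to DsRed ratio, PSI derived from sequencing read proportions per bin multiplied by bin number.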

Protein stability index: each site, then its substitutions
K1: S 2.08 | L 5.14 | D 2.06 | V 2.25 | H 1.97 | Q 2.44 | P 1.19 | C 4.61 | N 3.67 | A 2.64 | W 3.61 | E 2.64 | I 2.14 | T 2.78 | Y 2.63
L2: G 2.36 | F 1.11 | E 3.62 | C 2.03 | D 3.38 | A 2.15 | H 2.66

Variants of: B2
Test: as above
Details: c terminus: native

Protein stability index of substitutions, site by site:
E16: P 2.12 | Q 1.95 | V 2.59 | L 2.72 | K 1.97 | M 1.1 | I 1.65 | G 2.4 | T 1.66 | A 2.44 | F 2.42 | N 3.11 | S 2.03 | H 1.79
V1: D 3.13 | N 2.25 | S 2.11 | G 3.63 | Q 3 | L 2.48 | R 2.37 | C 1.97 | A 2.11 | H 2.59 | W 3.69 | E 2.97 | P 2.76 | I 1.43 | K 2.73
W20: A 4.2 | V 3.81 | R 3.94 | Y 3.39 | L 2.54 | T 4.17 | G 3.92 | F 4.18 | H 4.34 | Q 3.4 | S 4.28 | N 4.72 | K 3.78 | C 4.08 | M 3.12 | E 4.25
K13: M 2.69 | V 1.54 | D 2.83 | S 2.65 | I 2.69 | E 2.41 | A 2.29 | P 1.14 | G 2.02 | N 1.91 | T 1.72 | F 2.04 | H 1.71 | R 1.89
D18: K 2.69 | F 1.66 | N 2.44 | W 2.04 | A 1.3 | V 1.77 | C 1.47 | T 1.78 | S 1.31 | Q 2.98 | G 2.06
M21: V 1.87 | Y 2.28 | T 2.51 | A 1.86 | Q 2.94 | D 4.49 | C 3.53 | P 1.38 | W 1.97 | I 1.27 | E 4 | N 1.43 | S 2.52 | G 4.04
E23: H 4.53 | T 4.08 | R 4.6 | I 4.38 | N 4.41 | V 4.08 | P 3.67 | Y 3.76 | D 5 | S 4.6 | Q 4.37 | L 3.54 | K 4.76 | A 4.36
S9: Q 2.41 | G 2.06 | T 2.43 | F 1.63 | I 1.97 | N 1.78 | Y 2.3 | V 2.11 | H 2.25 | A 2.31 | P 3.03 | E 2.44 | M 2.47 | L 3.1
S12: V 1.86 | T 2.67 | A 1.4 | H 2.31 | R 1.92 | E 2.56 | Q 2.19 | G 1.41 | D 2 | N 2 | K 2.2 | F 2.33 | C 1.73 | Y 1.74 | P 1.61
F14: A 4.31 | Q 3.34 | Y 2.03 | L 2.43 | I 3.83 | G 2.58 | R 3.29 | N 3.54 | S 4.16 | D 3.96 | P 4.07 | W 1.96 | M 2.42 | V 3.01
D6: P 2.32 | W 4.02 | I 2.48 | S 2.15 | L 2.91 | H 1.85 | K 2.01 | E 2.42 | G 2.08 | R 2.16 | V 2.96
E22: W 3.33 | D 4.23 | K 4.73 | M 4.28 | A 4.23 | S 4.51 | C 4.69 | H 4.54 | I 3.81 | R 3.32 | L 4.07 | N 4.31 | F 3.47 | P 4.33 | Q 3.96
K19: R 2.5 | W 1.75 | E 3.41 | P 3.01 | A 1.27 | M 1.21 | T 1.92 | D 2.63 | G 1.95 | Y 2.22 | H 1.91 | C 1.62 | V 2.27
V11: W 2.43 | G 2.11 | I 2.39 | L 1.61 | C 2.35 | Q 2.87 | A 2.4 | S 2.71 | K 2.6 | H 2.43 | M 2.95 | T 1.49 | Y 1.38 | E 2.39 | R 2.12
I8: S 2.48 | T 2.62 | N 1.44 | K 2.23 | A 2.35 | C 2.81 | L 2.11 | M 2.05 | F 2 | Y 1.74 | Q 2.07 | H 1.93 | R 2.92 | D 1.89 | G 3.51
L15: E 3.77 | I 1.93 | H 3.35 | Q 3.7 | A 3.09 | D 1.85 | Y 2.21 | W 2.1 | T 3.47 | K 3.01 | N 3.32 | P 2.81 | R 2.91 | S 2.28 | F 1.06 | M 2.06
G5: I 2.77 | Y 1.32 | D 2.29 | A 2.03 | Q 2.3 | C 2.27 | R 1.74 | N 3.26 | V 1.61 | K 3.07 | F 1.88 | P 2.54 | W 2.02 | L 2.16
N7: E 1.4 | A 1.68 | H 2.12 | Q 1.79 | M 1.64 | Y 1.97 | G 1.77 | T 1.89 | C 2.37 | S 1.41
D10: H 3.06 | T 2.74 | V 2.63 | A 1.99 | S 2.09 | K 1.99 | R 1.55 | P 1.69 | E 2.1 | N 2.04 | G 2.11
R4: T 2.3 | P 1.51 | G 2.16 | Y 2.31 | C 2.66 | V 1.9 | N 2.1 | L 1.98 | S 2.33 | W 1.39 | K 2.41 | E 2.42 | Q 1.99 | H 2.19 | A 2.43 | D 2.4 | F 2.19
D17: A 2.29 | Q 2 | I 3.52 | N 2.26 | R 2.25 | V 1 | Y 2.73 | E 2.41 | T 2.04
F2: K 2.16 | I 1.8 | P 2.66 | L 1.97 | G 2.79 | S 2.83 | Y 1.66 | C 3.7 | Q 2.99 | N 2.87 | A 2.88 | W 2.85 | V 2.64
G3: A 2.83 | F 1.44 | M 1.51 | T 2.07 | D 2.21 | K 1.44 | S 1.82 | C 2.48 | R 2.1 | P 2.84 | W 2.36 | H 1.88

From the supplement of paper PMC10567573
